Experimental findings from patent US20260132173A1 (JOON HAENG, published 2026) are described below.

The experiment deals with T1, human TLR5 expressed from p3xFlag-hTLR5 in HEK293T cells (human, UniProt O60602 21-858).
T1 construct: whole, on cells; In the reporter assays the receptor stood on transfected HEK293T cells; In the Co-IP it stood in the RIPA lysate of such cells and was pulled down with an anti-Flag antibody; also called Toll-like receptor 5; not shown: 3xFlag tag of plasmid p3xFlag-hTLR5
T1 sequence (O60602 21-858): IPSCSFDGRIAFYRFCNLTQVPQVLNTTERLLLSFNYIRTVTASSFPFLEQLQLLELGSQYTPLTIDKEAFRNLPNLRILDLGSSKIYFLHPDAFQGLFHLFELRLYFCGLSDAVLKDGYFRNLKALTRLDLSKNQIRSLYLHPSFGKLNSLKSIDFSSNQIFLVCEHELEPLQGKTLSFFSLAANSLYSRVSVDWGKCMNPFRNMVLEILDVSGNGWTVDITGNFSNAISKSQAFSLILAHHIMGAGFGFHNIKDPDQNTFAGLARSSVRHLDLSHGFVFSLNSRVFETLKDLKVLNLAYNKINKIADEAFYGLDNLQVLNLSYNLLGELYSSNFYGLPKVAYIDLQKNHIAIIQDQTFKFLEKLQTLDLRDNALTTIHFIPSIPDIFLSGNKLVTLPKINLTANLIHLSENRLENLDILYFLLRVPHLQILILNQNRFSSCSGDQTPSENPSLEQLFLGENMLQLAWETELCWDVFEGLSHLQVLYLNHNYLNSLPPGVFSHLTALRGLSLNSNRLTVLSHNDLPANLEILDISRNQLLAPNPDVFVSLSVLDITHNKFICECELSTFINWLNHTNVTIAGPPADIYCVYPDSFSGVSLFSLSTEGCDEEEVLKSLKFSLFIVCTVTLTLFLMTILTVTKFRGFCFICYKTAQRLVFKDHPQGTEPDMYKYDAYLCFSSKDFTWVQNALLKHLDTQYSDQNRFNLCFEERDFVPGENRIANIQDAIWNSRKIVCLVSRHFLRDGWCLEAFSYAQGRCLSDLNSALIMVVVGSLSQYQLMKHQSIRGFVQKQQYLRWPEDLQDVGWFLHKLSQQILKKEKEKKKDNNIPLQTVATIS
The experiment can be described thus: Co-IP: 3xFlag-hTLR5 HEK293T lysate, anti-Flag pull-down, western blot with anti-Myc-HRP. In general terms: In western blotting, separated proteins are transferred to a membrane and probed.

B1: wild-type flagellin (eukFlaB) expressed in Expi293 cells (ligand)
chain: AVNVNTNVAAMTAQRYLNNANSAQQTSMERLSSGFKINSAKDDAAGLQISNRLNVQSRGLDVAVRNANDGISIAQTAEGAMNETTNILQRMRDLSLQSANGSNSKSERVAIQEEVTALNDELNRIAETTSFGGNKLLNGTYGTKAMQIGADNGEAVMLSLKDMRSDNVMMGGVSYQAEEGKDKNWNVAAGDNDLTIALTDSFGNEQEIEINAKAGDDIEELATYINGQTDLVKASVGEGGKLQIFAGNNKVQGEIAFSGSLAGELGLGEGKNVTVDTIDVTTVQGAQESVAIVDAALKYVDSHRAELGAFQNRFNHAISNLDNINENVNASKSRIKDTDFAKETTQLTKTQILSQASSSILAQAKQAPNSALSLLG
modifications: N-glycosylated by expression in Expi293 cells; five putative sites predicted at N83, N101, N139, N273, N330
notes: Secreted through the IgK leader of pSectag2B; also called glycosylated-eFlaB; eukaryotic-expressed wild-type flagellin; not shown: C-terminal Myc tag (and His tag implied by Ni-NTA purification) from vector pSectag2B
With B1, the binding result is “no binding”.
